EC50 data for three molecules are collected here from patent US20180273622A1 (published 2018).

Positions count from the first letter of the chain named.

The labels stand for the following.
B1: Fc H8L1 (TSC316) (Fc fusion)
chain: EPKSSDKTHTCPPCPAPEAAGAPSVFLFPPKPKDTLMISRTPEVTCVVVDVSHEDPEVKFNWYVDGVEVHNAKTKPREEQYNSTYRVVSVLTVLHQDWLNGKAYACAVSNKALPAPIEKTISKAKGQPREPQVYTLPPSRDELTKNQVSLTCLVKGFYPSDIAVEWESNGQPENNYKTTPPVLDSDGSFFLYSKLTVDKSRWQQGNVFSCSVMHEALHNHYTQKSLSLSPGQRHNNSSLNTGTQMAGHSPNSQVQLVQSGAEVKKPGASVKVSCKASGYTFTRSTMHWVRQAPGQGLEWMGYINPSSAYTNYNQKFKDRVTMTRDTSTSTVYMELSSLRSEDTAVYYCARPQVHYDYNGFPYWGQGTLVTVSSGGGGSGGGGSGGGGSGGGGSDIQMTQSPSSLSASVGDRVTMTCSASSSVSYMNWYQQKPGKAPKRWIYDSSKLASGVPARFSGSGSGTDYTLTISSLQPEDFATYYCQQWSRNPPTFGGGTKLQITSSS
B2: Fc H7L1 (TSC313) (Fc fusion)
chain: B1 chain with T328I, V331A, S337R, E341D
B3: Fc DRA222 (TSC311 or TSC312) (Fc fusion)
chain: EPKSSDKTHTCPPCPAPEAAGAPSVFLFPPKPKDTLMISRTPEVTCVVVDVSHEDPEVKFNWYVDGVEVHNAKTKPREEQYNSTYRVVSVLTVLHQDWLNGKAYACAVSNKALPAPIEKTISKAKGQPREPQVYTLPPSRDELTKNQVSLTCLVKGFYPSDIAVEWESNGQPENNYKTTPPVLDSDGSFFLYSKLTVDKSRWQQGNVFSCSVMHEALHNHYTQKSLSLSPGQRHNNSSLNTGTQMAGHSPNSQVQLVESGGGVVQPGRSLRLSCKASGYTFTRSTMHWVRQAPGQGLEWIGYINPSSAYTNYNQKFKDRFTISADKSKSTAFLQMDSLRPEDTGVYFCARPQVHYDYNGFPYWGQGTPVTVSSGGGGSGGGGSGGGGSAQDIQMTQSPSSLSASVGDRVTMTCSASSSVSYMNWYQQKPGKAPKRWIYDSSKLASGVPARFSGSGSGTDYTLTISSLQPEDFATYYCQQWSRNPPTFGGGTKLQITSSS

human CD3, sequence (P07766 23-207, chain 1 of 4): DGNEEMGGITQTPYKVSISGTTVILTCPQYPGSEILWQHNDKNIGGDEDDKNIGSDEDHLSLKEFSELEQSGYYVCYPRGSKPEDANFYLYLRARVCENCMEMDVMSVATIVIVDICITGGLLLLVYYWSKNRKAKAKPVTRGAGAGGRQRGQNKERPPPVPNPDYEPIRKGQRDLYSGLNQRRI
human CD3, sequence (P09693 23-182, chain 2 of 4): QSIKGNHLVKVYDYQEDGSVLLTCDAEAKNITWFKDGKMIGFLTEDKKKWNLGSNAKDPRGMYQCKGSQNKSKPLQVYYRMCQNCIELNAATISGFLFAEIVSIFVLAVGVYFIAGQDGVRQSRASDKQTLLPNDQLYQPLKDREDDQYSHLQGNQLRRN
human CD3, sequence (P04234 22-171, chain 3 of 4): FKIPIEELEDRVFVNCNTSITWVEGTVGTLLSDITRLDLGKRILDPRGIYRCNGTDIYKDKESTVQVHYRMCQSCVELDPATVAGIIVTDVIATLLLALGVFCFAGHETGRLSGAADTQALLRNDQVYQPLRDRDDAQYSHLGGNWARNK
human CD3, sequence (P20963 22-164, chain 4 of 4): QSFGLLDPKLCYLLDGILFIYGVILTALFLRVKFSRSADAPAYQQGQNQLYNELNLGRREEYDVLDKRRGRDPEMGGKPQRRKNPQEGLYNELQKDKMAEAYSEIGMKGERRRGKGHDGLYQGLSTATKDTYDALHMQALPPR

The test addresses human CD3 (human, UniProt P07766 23-207; P09693 23-182; P04234 22-171; P20963 22-164). Briefly: flow cytometry, Jurkat T cells.
Molecule B1 returned an EC50 of 1.3 nM. That is a single-digit nanomolar value.
As for B2, the midpoint of the response, the EC50, lay at 0.87 nM. The EC50 values of the last two molecules are within 1.5-fold of each other.
Regarding B3, it took 1.7 nM to reach a half-maximal effect (EC50).
